# According to patent publication US20240307370A1, “SIGMA RECEPTOR LIGANDS FOR TREATING SARS-COV-2 INFECTION” (University of Florida Research Foundation, Incorporated, priority 2021, published 2024):
# B1: lactoferrin: host-iron sequestration protein; lactoferrin from human milk, MilliporeSigma (protein, UniProt P02788 20-710, looked up)
# Lactotransferrin: GRRRSVQWCAVSQPEATKCFQWQRNMRKVRGPPVSCIKRDSPIQCIQAIAENRADAVTLDGGFIYEAGLAPYKLRPVAAEVYGTERQPRTHYYAVAVVKKGGSFQLNELQGLKSCHTGLRRTAGWNVPIGTLRPFLNWTGPPEPIEAAVARFFSASCVPGADKGQFPNLCRLCAGTGENKCAFSSQEPYFSYSGAFKCLRDGAGDVAFIRESTVFEDLSDEAERDEYELLCPDNTRKPVDKFKDCHLARVPSHAVVARSVNGKEDAIWNLLRQAQEKFGKDKSPKFQLFGSPSGQKDLLFKDSAIGFSRVPPRIDSGLYLGSGYFTAIQNLRKSEEEVAARRARVVWCAVGEQELRKCNQWSGLSEGSVTCSSASTTEDCIALVLKGEADAMSLDGGYVYTAGKCGLVPVLAENYKSQQSSDPDPNCVDRPVEGYLAVAVVRRSDTSLTWNSVKGKKSCHTAVDRTAGWNIPMGLLFNQTGSCKFDEYFSQSCAPGSDPRSNLCALCIGDEQGENKCVPNSNERYYGYTGAFRCLAENAGDVAFVKDVTVLQNTDGNNNEAWAKDLKLADFALLCLDGKRKPVTEARSCHLAMAPNHAVVSRMDKVERLKQVLLHQQAKFGRNGSDCPDKFCLFQSETKNLLFNDNTECLARLHGKTTYEKYLGPQYVAGITNLKKCSTSPLLEACEFLRK
# What was measured:
# SARS-CoV-2 [1] = format: cell-based; details: 400 μg/ml, H23-hACE2, MOI 0.01, 48 hpi
# SARS-CoV-2 [2] = format: cell-based; details: 400 μg/ml, 48 hours after infection, vs DMSO alone
molecule,measurement,setting,value
B1,"effect on SARS-CoV-2 concentration (TCID50), words",SARS-CoV-2 [1],ineffective
same,decrease of N-protein RNA copies (qPCR),SARS-CoV-2 [2],28.0%
